Measured values: publication PMC5290276, “A quantized mechanism for activation of pannexin channels” (Nature Communications, 2017)

Legend:
[1] = target: caspase 3-cleaved PANX1 (C-terminally cleaved human PANX1) (human); assay: SEC; purified PANX1 in amphipol A8-35 on an SRT-C 300 column (Sepax); oligomer size judged from the elution volume
[2] = target: 3(2CT)-GFP, GFP-tagged trimeric concatemer of two full-length PANX1 subunits and a C-terminally truncated PANX1 subunit (human) (UniProt Q96RD7); assay: cross-linking; HEK293T cells surface-biotinylated (Sulfo-NHS-LC-Biotin, 4 °C, 30 min), then cross-linked with 1.8 mM disuccinimidyl suberate at 4 °C for 1 h; streptavidin precipitation and western blot; not quantitative according to the paper
[3] = target: 3(2CT)-GFP, GFP-tagged trimeric concatemer of two full-length PANX1 subunits and a C-terminally truncated PANX1 subunit (human) (UniProt Q96RD7); assay: single-molecule photobleaching (TIRF microscopy), subunit counting; GFP-tagged concatemers in the plasma membrane of HEK293T cells 5-7 h after transfection; photobleaching steps fitted by binomial distributions assuming ~65% of GFP is fluorescent
[4] = target: 2(1CT)-GFP, GFP-tagged tandem dimer linking a full-length PANX1 subunit to a C-terminally truncated PANX1 subunit (human) (UniProt Q96RD7); assay: as above
[5] = target: the molecule itself; assay: SEC; purified PANX1 in amphipol A8-35 on an SRT-C 300 column (Sepax); oligomer size judged from the elution volume

caspase 3-cleaved PANX1 (C-terminally cleaved human PANX1) (domain or fragment)
stoichiometry N [1]: 6

3(2CT)-GFP, GFP-tagged trimeric concatemer of two full-length PANX1 subunits and a C-terminally truncated PANX1 subunit (from UniProt Q96RD7 1-426; Q96RD7 1-426)
stoichiometry N [2]: 2 | stoichiometry N [3]: 2

2(1CT)-GFP, GFP-tagged tandem dimer linking a full-length PANX1 subunit to a C-terminally truncated PANX1 subunit (from UniProt Q96RD7 1-426)
stoichiometry N [4]: 3

B1: full-length human PANX1 (Pannexin 1) with a C-terminal enterokinase cleavage site and hexahistidine tag (natural protein, UniProt Q96RD7-1 1-426, looked up)
chain: MAIAQLATEYVFSDFLLKEPTEPKFKGLRLELAVDKMVTCIAVGLPLLLISLAFAQEISIGTQISCFSPSSFSWRQAAFVDSYCWAAVQQKNSLQSESGNLPLWLHKFFPYILLLFAILLYLPPLFWRFAAAPHICSDLKFIMEELDKVYNRAIKAAKSARDLDMRDGACSVPGVTENLGQSLWEVSESHFKYPIVEQYLKTKKNSNNLIIKYISCRLLTLIIILLACIYLGYYFSLSSLSDEFVCSIKSGILRNDSTVPDQFQCKLIAVGIFQLLSVINLVVYVLLAPVVVYTLFVPFRQKTDVLKVYEILPTFDVLHFKSEGYNDLSLYNLFLEENISEVKSYKCLKVLENIKSSGQGIDPMLLLTNLGMIKMDVVDGKTPMSAEMREEQGNQTAELQGMNIDSETKANNGEKNARQRLLDSSC
notes: Pannexin 1 (PANX1), human, NM_015368, isoform 1, 426 a.a., full length; No removal of the tag by enterokinase is described; The purified protein was probed with anti-pentaHis in a purity western; also called full-length PANX1; source: Sf9 (baculovirus), purified from membranes (TALON cobalt resin, amphipol A8-35 exchange, SEC)
stoichiometry N [5]: 6
